Biological target: human type 1 insulin-like growth factor receptor (human) (UniProt P08069)
Experiment: competitive displacement assay, plate capture of solubilized receptor (tracer for IGF-1R not stated)

- Kd: 5 nM
Substance: KP-insulin ([Lys^B28, Pro^B29]-insulin, insulin Lispro) (ligand; other documents disagree on this pair)

Reference: patent publication US20190382463A1
